Measured values reported in patent publication US20250092135A1 (NANJING LEADS BIOLABS, published 2025).

Experiments:
[1] = biological target: T1, rhesus monkey MUC16 protein (ECT_TM RhMuc16) on 293T cells (rhesus monkey); assay: flow cytometry, 293T/rhesus MUC16 cells, PE anti-human IgG Fc secondary, MFI; EC50 table under the plot, unit from the axis Conc.(nM)
T1 chain: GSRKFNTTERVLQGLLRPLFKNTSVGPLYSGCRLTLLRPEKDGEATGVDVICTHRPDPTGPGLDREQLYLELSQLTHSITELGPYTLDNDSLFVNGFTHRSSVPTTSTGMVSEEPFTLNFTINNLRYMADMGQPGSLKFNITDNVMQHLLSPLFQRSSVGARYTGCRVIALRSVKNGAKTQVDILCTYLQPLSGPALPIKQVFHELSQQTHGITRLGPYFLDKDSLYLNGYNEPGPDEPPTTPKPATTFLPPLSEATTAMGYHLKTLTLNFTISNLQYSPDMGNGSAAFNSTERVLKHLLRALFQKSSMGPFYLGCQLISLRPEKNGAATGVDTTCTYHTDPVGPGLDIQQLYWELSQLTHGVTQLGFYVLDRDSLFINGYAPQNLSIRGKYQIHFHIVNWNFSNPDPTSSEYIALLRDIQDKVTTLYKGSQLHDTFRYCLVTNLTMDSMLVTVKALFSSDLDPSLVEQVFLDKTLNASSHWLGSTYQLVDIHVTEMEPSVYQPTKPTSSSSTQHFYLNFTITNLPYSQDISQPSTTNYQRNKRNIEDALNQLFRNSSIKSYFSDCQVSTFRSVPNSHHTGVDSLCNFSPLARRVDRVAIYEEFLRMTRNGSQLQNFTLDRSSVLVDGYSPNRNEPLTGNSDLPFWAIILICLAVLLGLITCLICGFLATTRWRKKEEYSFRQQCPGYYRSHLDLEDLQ
Procedure: (§1) The serially diluted anti-human MUC16 antibodies (at an initial concentration of 200 nM, 4-fold dilution, 8 points in total) obtained in the present application were added to the cells, and the cells were incubated at 4° C. for 30 min. The cells were washed twice with PBS, and then fluorescent secondary antibody R-PE-conjugated AffiniPure Goat Anti-Human IgG, Fcγ Fragment Specific (Jackson ImmunoResearch, Cat #109-116-098) was added. The cells were incubated at 4° C. for 30 min. The cells were washed twice with PBS and then resuspended, and finally, fluorescence signals were detected using a BD Accuri C5 (BD Bioscience) flow cytometer.

[2] = biological target: T2, human MUC16 protein (ECT_TM huMuc16) on 293T cells (human); assay: flow cytometry, 293T/hMUC16 cells, PE anti-human IgG Fc secondary, MFI; EC50 table under the plot, unit from the axis Conc.(nM)
T2 chain: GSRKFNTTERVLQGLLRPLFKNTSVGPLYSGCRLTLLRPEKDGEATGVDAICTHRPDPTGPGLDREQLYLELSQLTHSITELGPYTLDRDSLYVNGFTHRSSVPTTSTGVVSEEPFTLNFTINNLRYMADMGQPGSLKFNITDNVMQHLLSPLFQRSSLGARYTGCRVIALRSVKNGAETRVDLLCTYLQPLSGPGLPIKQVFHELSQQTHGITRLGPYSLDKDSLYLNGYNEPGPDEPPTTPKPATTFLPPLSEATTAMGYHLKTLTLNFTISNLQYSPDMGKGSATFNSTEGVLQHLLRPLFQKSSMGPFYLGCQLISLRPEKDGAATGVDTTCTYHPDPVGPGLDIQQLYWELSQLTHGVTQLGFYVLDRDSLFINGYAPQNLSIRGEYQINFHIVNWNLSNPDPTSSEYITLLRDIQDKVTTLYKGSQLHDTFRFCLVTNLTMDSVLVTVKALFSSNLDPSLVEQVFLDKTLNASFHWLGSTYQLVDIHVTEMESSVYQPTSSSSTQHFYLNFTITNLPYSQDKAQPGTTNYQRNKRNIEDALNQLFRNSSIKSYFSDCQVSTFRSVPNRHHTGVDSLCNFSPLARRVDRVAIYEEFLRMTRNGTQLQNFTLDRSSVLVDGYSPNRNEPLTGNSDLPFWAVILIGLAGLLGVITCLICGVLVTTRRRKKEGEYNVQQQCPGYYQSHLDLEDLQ
Procedure: as §1

[3] = biological target: T3, Human MUC16-His (human); assay: BLI (ForteBio Octet RED96), antibody on AHC sensor, 50 nM antigen, 1:1 model
T3 construct: The entry includes the C-terminal 6xHis tag; also called membrane-proximal end of the extracellular region of the human MUC16 protein; Human MUC16 protein
T3 chain: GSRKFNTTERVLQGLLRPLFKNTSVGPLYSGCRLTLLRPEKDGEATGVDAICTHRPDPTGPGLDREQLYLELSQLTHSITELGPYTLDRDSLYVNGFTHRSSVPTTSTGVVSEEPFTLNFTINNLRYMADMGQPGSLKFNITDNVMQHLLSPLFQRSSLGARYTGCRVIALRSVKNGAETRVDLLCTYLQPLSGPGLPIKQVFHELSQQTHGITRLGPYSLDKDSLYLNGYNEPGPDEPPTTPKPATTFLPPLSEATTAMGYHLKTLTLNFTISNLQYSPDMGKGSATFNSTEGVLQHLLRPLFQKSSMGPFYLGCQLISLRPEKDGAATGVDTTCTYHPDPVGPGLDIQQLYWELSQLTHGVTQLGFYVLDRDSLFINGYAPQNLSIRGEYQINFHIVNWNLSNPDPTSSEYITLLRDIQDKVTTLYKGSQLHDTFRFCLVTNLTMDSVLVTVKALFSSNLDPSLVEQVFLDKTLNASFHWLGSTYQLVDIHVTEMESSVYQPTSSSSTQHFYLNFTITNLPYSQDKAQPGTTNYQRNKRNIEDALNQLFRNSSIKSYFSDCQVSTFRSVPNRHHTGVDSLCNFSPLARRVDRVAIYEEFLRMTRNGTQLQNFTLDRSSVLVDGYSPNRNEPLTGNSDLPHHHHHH
Description: (§2) The binding affinity of the anti-MUC-16 antibodies for the membrane-proximal end of the extracellular region of the human MUC16 protein (human MUC16-His, Table 26) and the membrane-proximal end of the extracellular region of the rhesus monkey MUC16 protein (rhesus monkey MUC16-His, Table 26) was detected by ForteBio Octet RED96, respectively. According to the manufacturer's instructions, an AHC sensor (ForteBio, Cat #18-5060) was placed in a running buffer (lx PBS, Hyclone, Cat #SH30256.01, containing 0.02% Tween 20, pH 7.0) and pre-equilibrated at room temperature for 10 min. In a 96-well plate, the kinetic assay was performed according to the following steps: a) equilibrating the baseline for 100 s with the running buffer; b) diluting the anti-MUC-16 antibodies with the running buffer to 5 μg/mL, immobilizing for 200 s, and stopping; c) equilibrating the baseline for 300 s with the running buffer; and d) diluting the human or rhesus monkey MUC16 protein with the running buffer to 50 nM, binding for 200 s, and dissociating for 600 s. The experimental data were fitted and calculated using a Fortebio Data Analysis software 1:1 binding model.

[4] = biological target: T4, Rhesus monkey MUC16-His (rhesus monkey); assay: as above
T4 construct: The entry includes the C-terminal 6xHis tag; also called membrane-proximal end of the extracellular region of the rhesus monkey MUC16 protein
T4 chain: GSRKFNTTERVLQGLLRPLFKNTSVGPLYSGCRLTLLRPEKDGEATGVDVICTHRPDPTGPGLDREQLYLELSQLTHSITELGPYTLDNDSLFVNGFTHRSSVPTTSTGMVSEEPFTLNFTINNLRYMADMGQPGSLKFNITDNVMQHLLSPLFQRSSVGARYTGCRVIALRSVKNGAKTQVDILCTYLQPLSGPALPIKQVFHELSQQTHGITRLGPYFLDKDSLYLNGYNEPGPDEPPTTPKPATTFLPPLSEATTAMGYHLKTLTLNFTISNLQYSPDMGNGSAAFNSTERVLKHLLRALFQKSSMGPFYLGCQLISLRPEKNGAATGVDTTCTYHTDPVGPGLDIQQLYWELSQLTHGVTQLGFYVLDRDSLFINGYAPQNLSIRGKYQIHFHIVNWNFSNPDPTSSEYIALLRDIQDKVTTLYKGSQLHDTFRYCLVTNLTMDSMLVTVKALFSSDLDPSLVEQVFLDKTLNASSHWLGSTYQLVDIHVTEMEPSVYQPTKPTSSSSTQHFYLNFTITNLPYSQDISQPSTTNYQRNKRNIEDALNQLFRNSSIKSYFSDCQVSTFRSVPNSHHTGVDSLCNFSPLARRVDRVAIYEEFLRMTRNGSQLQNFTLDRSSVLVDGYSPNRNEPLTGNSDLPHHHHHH
Description: as §2

Row | EC50 [1] | EC50 [2] | Kd [3] | koff [3] | kon [3] | Kd [4] | koff [4] | kon [4] | Binder
1 | 4.87 nM | 2.58 nM | 0.359 nM | 0.000168 s⁻¹ | 468000 M⁻¹ s⁻¹ | 1.82 nM | 0.00156 s⁻¹ | 856000 M⁻¹ s⁻¹ | murine anti-MUC16 antibody 776.1 (antibody, human IgG1, kappa, L234A L235A, V domains shown, Murine variable regions on human IgG1 (L234A, L235A, D265A, P329A) and kappa constant regions) VH: EVQLQQSGPELVKPGASVKISCKASGYTFTDYNIHWVKQSHGKILEWIGYIYPYNGVSDYNQNFKSKATLIVDNSSNTAYMELRSLTSEDSAVYYCARWDFGSGYYFDYWGQGTTLTVSS VL: QIVLSQSPAILFASPGETVTMTCRASSSVIYMCWNQQKPGSSPKPWIYGTSTLASGVPTRFSGSGSGTSYSLTISRVEAEDAATYYCQQWSSNPFTFGSGTKLEIKR
2 | 11.1 nM | 8.72 nM | 1.36 nM | 0.000348 s⁻¹ | 255000 M⁻¹ s⁻¹ | 1.2 nM | 0.000945 s⁻¹ | 791000 M⁻¹ s⁻¹ | anti-MUC16 antibody 776.1(C33A) (antibody, human IgG1, kappa, L234A L235A, V domains shown) VH: EVQLQQSGPELVKPGASVKISCKASGYTFTDYNIHWVKQSHGKILEWIGYIYPYNGVSDYNQNFKSKATLIVDNSSNTAYMELRSLTSEDSAVYYCARWDFGSGYYFDYWGQGTTLTVSS VL: QIVLSQSPAILFASPGETVTMTCRASSSVIYMAWNQQKPGSSPKPWIYGTSTLASGVPTRFSGSGSGTSYSLTISRVEAEDAATYYCQQWSSNPFTFGSGTKLEIKR
